From patent US10562935B2, “Stapled peptides and uses thereof” (London Health Sciences Centre Research Inc., priority 2015, dated 2020)

Key:
[1] = Circular dichroism (CD) spectroscopy of linear and stapled peptides in water or 40% TFE/water (Example 3); type: physicochemical; details: for [0]208 mean residue ellipticity: λ = 208 nm; for [0]222 mean residue ellipticity: λ = 222 nm
Method in brief: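 Spectra 180–260 nm at 20 °C, 0.5 mM N-acetylated, C-amidated peptides in 0.1M phosphate buffer (water) or 40% TFE/water, 1 mm path, five scans averaged, buffer baseline subtracted. Mean residue ellipticity reported at 222 and 208 nm with the 222/208 ratio as helicity index.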

[2] = system: RHAMM-overexpressing (LR21) cells; experiment: Cell migration assay (Boyden chamber, Chemicon ECM510); type: cell-based; details: for inhibition of cell migration (in words): 10 ng/mL peptide, 20 hours, compared to 30% serum control; for Migration (% inhib.): % inhibition relative to positive control
Method in brief: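 Serum-starved LR21 cells (7.5×10^4) placed in the upper Boyden chamber with or without 10 ng/mL peptide, with 30% FBS in DMEM as lower-chamber chemoattractant. Cells crossing the membrane after 20 h quantified by CyQUANT GR fluorescence (480/520 nm); mean of n=3, compared with 30% serum control.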

NF-κB = experiment: Inflammation assay: NF-κB inducible SEAP reporter in RAW-Blue macrophages stimulated with PAM3CSK4; type: cell-based, murine; details: for Inflammation (% Inhib.): % inhibition relative to positive control
Method in brief: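 RAW-Blue murine RAW 264.7 macrophages carrying an NF-κB-inducible SEAP reporter were stimulated with 200 ng/mL PAM3CSK4 and given peptide at 10 ng/mL. After 18 h, supernatant SEAP was developed with QUANTI-BLUE for 20 min at 37 °C and read by absorbance at 630 nm. Values are mean and SDM of n=3.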

[3] = system: IMR90 human fetal lung fibroblasts; experiment: Fibrosis assay: active TGF-β levels in TGF-β treated fibroblasts (ELISA); type: cell-based; details: % inhibition relative to positive control
[4] = [θ]222/[θ]208 ratio in water, summary tables 15, 17, 19
[5] = as repeated in tables 16, 18, 20

Substance	[0]208 mean residue ellipticity at λ=208 nm ([1]; 40% TFE/water) [deg cm^2 dmol^−1]	[0]222/[0]208 ratio of ellipticities ([1]; 40% TFE/water)	[0]222 mean residue ellipticity at λ=222 nm ([1]; 40% TFE/water) [deg cm^2 dmol^−1]	[θ]222/[θ]208 ratio of ellipticities [1, 4]	[θ]222/[θ]208 ratio of ellipticities [1, 5]	[0]208 mean residue ellipticity at λ=208 nm ([1]; water) [deg cm^2 dmol^−1]	[0]222/[0]208 ratio of ellipticities ([1]; water)	[0]222 mean residue ellipticity at λ=222 nm ([1]; water) [deg cm^2 dmol^−1]	inhibition of cell migration (in words) [2]	Migration (% inhib.) [2] [% inhib.]	inhibition of inflammation (SEAP / NF-κB activity, in words) (NF-κB; 10 ng/mL peptide with 200 ng/mL PAM3CSK4, 18 hours, compared to +PAM3)	Inflammation (% Inhib.) (NF-κB)	Fibrosis (% inhib.) [3] [% inhib.]	[0]222/[0]208 ratio of ellipticities ([1]; in 40% TFE/water)	[0]222/[0]208 ratio of ellipticities ([1]; in water)	alpha-helical character by CD (in words) ([1]; in water)	[0]208 mean residue ellipticity ([1]; in 40% TFE/water) [deg cm^2 dmol^−1]	[0]208 mean residue ellipticity ([1]; in water)	[0]222 mean residue ellipticity ([1]; in 40% TFE/water) [deg cm^2 dmol^−1]	[0]222 mean residue ellipticity ([1]; in water) [deg cm^2 dmol^−1]
Ac-KIKHVVKLKDENSQLKSEVSKLRSQLVKRK-NH2 [Compound 265]	-2.72E04	0.80	-2.18E04	0.40	0.40	-2.73E+04	0.40	-1.09E+04	significantly inhibit cell migration	63	significantly inhibited inflammation	18	0							
Ac-NLKQKIKHVVKLKDENSQLKSEVSKLRSQLVKRKQN-NH2 [Compound 275]	-3.52E04	0.83	-2.96E04	0.35	0.35	-9.71E+03	0.35	-3.35E+03	significantly inhibit cell migration	60		0	0							
Ac-VSKLRSQLVKRKQN-NH2 [Compound 132]				0.13	0.13				significantly inhibit cell migration	36		0	0	0.72	0.13	nominal alpha helical character in water	-1.59E+04	-4,85E+03 deg cm^2 dmol^−1	-1.14E+04	-1.10E+03
